Results: US20220049236A1

Experiments:
HSP70 [1] = biological target: HSP70 (UniProt P0DMV8); test: ELISA, plate coated with HSP70
HSP70 [2] = biological target: HSP70 (UniProt P0DMV8); test: ELISA, plate coated with HSP70, bound protein detected with peroxidase-conjugated anti-human antibody

HSP70, sequence (P0DMV8 whole entry): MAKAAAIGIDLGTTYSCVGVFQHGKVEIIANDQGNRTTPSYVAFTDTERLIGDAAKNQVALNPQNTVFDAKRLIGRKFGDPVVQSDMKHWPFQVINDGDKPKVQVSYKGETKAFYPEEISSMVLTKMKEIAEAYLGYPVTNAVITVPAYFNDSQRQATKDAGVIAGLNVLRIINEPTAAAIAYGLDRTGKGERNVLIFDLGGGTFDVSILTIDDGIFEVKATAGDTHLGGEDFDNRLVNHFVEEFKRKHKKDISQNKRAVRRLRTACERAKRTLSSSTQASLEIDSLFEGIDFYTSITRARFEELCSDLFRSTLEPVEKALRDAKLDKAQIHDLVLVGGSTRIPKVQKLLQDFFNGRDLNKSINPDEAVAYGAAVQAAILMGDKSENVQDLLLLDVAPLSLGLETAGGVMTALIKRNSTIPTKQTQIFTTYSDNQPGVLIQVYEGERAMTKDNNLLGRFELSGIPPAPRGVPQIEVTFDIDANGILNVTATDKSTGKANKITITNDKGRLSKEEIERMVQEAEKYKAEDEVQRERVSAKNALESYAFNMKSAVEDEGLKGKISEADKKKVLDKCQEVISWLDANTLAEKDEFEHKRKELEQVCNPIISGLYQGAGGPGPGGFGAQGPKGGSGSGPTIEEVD

EC50 (HSP70 [1]): 41 nM
EC50 (HSP70 [2]): 57 nM
B1: Fc-LPD N346, 362, 409Q (Fc fusion)
chain: APPAAGQQQPPREPPAAPGAWRQQIQWENNGQVFSLLSLGSQYQPQRRRDPGAAVPGAAQASAQQPRTPILLIRDQRTAAARTRTAGSSGVTAGRPRPTARHWFQAGYSTSRAREAGASRAEQQTAPGEVPALSNLRPPSRVDGMVGD
